From patent publication US20220348632A1 (Novartis, published 2022)

T1: mouse Rae-1α over-expressed on CT26.WT cells (mouse, UniProt O08602 29-229)
T1 construct: whole, on cells; also called mouse RAE-1alpha; Rae-1a
T1 sequence (looked up): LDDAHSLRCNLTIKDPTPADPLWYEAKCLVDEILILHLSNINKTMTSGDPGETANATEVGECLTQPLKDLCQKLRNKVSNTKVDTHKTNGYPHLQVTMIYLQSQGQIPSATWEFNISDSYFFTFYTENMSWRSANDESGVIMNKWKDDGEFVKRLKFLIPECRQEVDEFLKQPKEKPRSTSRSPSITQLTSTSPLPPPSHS

T2: mouse Rae-1ε over-expressed on CT26.WT cells (mouse, UniProt Q9CZQ6 29-225)
T2 construct: whole, on cells; also called mouse RAE-1 epsilon; Rae-1E
T2 sequence (looked up): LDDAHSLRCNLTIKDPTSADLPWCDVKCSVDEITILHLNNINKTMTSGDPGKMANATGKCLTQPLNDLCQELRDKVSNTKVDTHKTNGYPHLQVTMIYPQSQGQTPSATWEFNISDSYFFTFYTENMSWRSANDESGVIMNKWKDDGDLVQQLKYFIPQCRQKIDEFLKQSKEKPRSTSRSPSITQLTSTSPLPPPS

B1: MM8, mFc2-(G4S)6-mNKG2D (aa94-232)-RS(G3S)2-mNKG2D (aa94-232) (Fc fusion)
chain: ISAMVRSPRGPTIKPCPPCKCPAPNLLGGPSVFIFPPKIKDVLMISLSPIVTCVVVDVSEDDPDVQISWFVNNVEVHTAQTQTHREDYNSTLRVVSALPIQHQDWMSGKEFKCKVNNKDLPAPIERTISKPKGSVRAPQVYVLPPPEEEMTKKQVTLTCMVTDFMPEDIYVEWTNNGKTELNYKNTEPVLDSDGSYFMYSKLRVEKKNWVERNSYSCSVVHEGLHNHHTTKSFSRTPGKGGGGSGGGGSGGGGSGGGGSGGGGSGGGGSFQPVLCNKEVPVSSREGYCGPCPNNWICHRNNCYQFFNEEKTWNQSQASCLSQNSSLLKIYSKEEQDFLKLVKSYHWMGLVQIPANGSWQWEDGSSLSYNQLTLVEIPKGSCAVYGSSFKAYTEDCANLNTYICMKRAVRSGGGSGGGSFQPVLCNKEVPVSSREGYCGPCPNNWICHRNNCYQFFNEEKTWNQSQASCLSQNSSLLKIYSKEEQDFLKLVKSYHWMGLVQIPANGSWQWEDGSSLSYNQLTLVEIPKGSCAVYGSSFKAYTEDCANLNTYICMKRAV
notes: also called C-terminal variant with a linker length of 30 aa
B2: MM7, mFc2-(G4S)4-mNKG2D (aa94-232)-RS(G3S)2-mNKG2D (aa94-232) (Fc fusion)
chain: ISAMVRSPRGPTIKPCPPCKCPAPNLLGGPSVFIFPPKIKDVLMISLSPIVTCVVVDVSEDDPDVQISWFVNNVEVHTAQTQTHREDYNSTLRVVSALPIQHQDWMSGKEFKCKVNNKDLPAPIERTISKPKGSVRAPQVYVLPPPEEEMTKKQVTLTCMVTDFMPEDIYVEWTNNGKTELNYKNTEPVLDSDGSYFMYSKLRVEKKNWVERNSYSCSVVHEGLHNHHTTKSFSRTPGKGGGGSGGGGSGGGGSGGGGSFQPVLCNKEVPVSSREGYCGPCPNNWICHRNNCYQFFNEEKTWNQSQASCLSQNSSLLKIYSKEEQDFLKLVKSYHWMGLVQIPANGSWQWEDGSSLSYNQLTLVEIPKGSCAVYGSSFKAYTEDCANLNTYICMKRAVRSGGGSGGGSFQPVLCNKEVPVSSREGYCGPCPNNWICHRNNCYQFFNEEKTWNQSQASCLSQNSSLLKIYSKEEQDFLKLVKSYHWMGLVQIPANGSWQWEDGSSLSYNQLTLVEIPKGSCAVYGSSFKAYTEDCANLNTYICMKRAV
notes: also called C-terminal variant with a linker length of 20 aa
B3: MM3, mNKG2D (aa94-232)-RS(G3S)2-mNKG2D (aa94-232)-(G4S)4-mFc2 (Fc fusion)
chain: FQPVLCNKEVPVSSREGYCGPCPNNWICHRNNCYQFFNEEKTWNQSQASCLSQNSSLLKIYSKEEQDFLKLVKSYHWMGLVQIPANGSWQWEDGSSLSYNQLTLVEIPKGSCAVYGSSFKAYTEDCANLNTYICMKRAVRSGGGSGGGSFQPVLCNKEVPVSSREGYCGPCPNNWICHRNNCYQFFNEEKTWNQSQASCLSQNSSLLKIYSKEEQDFLKLVKSYHWMGLVQIPANGSWQWEDGSSLSYNQLTLVEIPKGSCAVYGSSFKAYTEDCANLNTYICMKRAVGGGGSGGGGSGGGGSGGGGSISAMVRSPRGPTIKPCPPCKCPAPNLLGGPSVFIFPPKIKDVLMISLSPIVTCVVVDVSEDDPDVQISWFVNNVEVHTAQTQTHREDYNSTLRVVSALPIQHQDWMSGKEFKCKVNNKDLPAPIERTISKPKGSVRAPQVYVLPPPEEEMTKKQVTLTCMVTDFMPEDIYVEWTNNGKTELNYKNTEPVLDSDGSYFMYSKLRVEKKNWVERNSYSCSVVHEGLHNHHTTKSFSRTPGK
notes: also called N-terminal, 20 aa linker
B4: MM5, mFc2-mNKG2D (aa94-232)-RS(G3S)2-mNKG2D (aa94-232) (Fc fusion)
chain: ISAMVRSPRGPTIKPCPPCKCPAPNLLGGPSVFIFPPKIKDVLMISLSPIVTCVVVDVSEDDPDVQISWFVNNVEVHTAQTQTHREDYNSTLRVVSALPIQHQDWMSGKEFKCKVNNKDLPAPIERTISKPKGSVRAPQVYVLPPPEEEMTKKQVTLTCMVTDFMPEDIYVEWTNNGKTELNYKNTEPVLDSDGSYFMYSKLRVEKKNWVERNSYSCSVVHEGLHNHHTTKSFSRTPGKFQPVLCNKEVPVSSREGYCGPCPNNWICHRNNCYQFFNEEKTWNQSQASCLSQNSSLLKIYSKEEQDFLKLVKSYHWMGLVQIPANGSWQWEDGSSLSYNQLTLVEIPKGSCAVYGSSFKAYTEDCANLNTYICMKRAVRSGGGSGGGSFQPVLCNKEVPVSSREGYCGPCPNNWICHRNNCYQFFNEEKTWNQSQASCLSQNSSLLKIYSKEEQDFLKLVKSYHWMGLVQIPANGSWQWEDGSSLSYNQLTLVEIPKGSCAVYGSSFKAYTEDCANLNTYICMKRAV
notes: also called C-terminal, no linker
B5: MM6, mFc2-(G4S)2-mNKG2D (aa94-232)-RS(G3S)2-mNKG2D (aa94-232) (Fc fusion)
chain: ISAMVRSPRGPTIKPCPPCKCPAPNLLGGPSVFIFPPKIKDVLMISLSPIVTCVVVDVSEDDPDVQISWFVNNVEVHTAQTQTHREDYNSTLRVVSALPIQHQDWMSGKEFKCKVNNKDLPAPIERTISKPKGSVRAPQVYVLPPPEEEMTKKQVTLTCMVTDFMPEDIYVEWTNNGKTELNYKNTEPVLDSDGSYFMYSKLRVEKKNWVERNSYSCSVVHEGLHNHHTTKSFSRTPGKGGGGSGGGGSFQPVLCNKEVPVSSREGYCGPCPNNWICHRNNCYQFFNEEKTWNQSQASCLSQNSSLLKIYSKEEQDFLKLVKSYHWMGLVQIPANGSWQWEDGSSLSYNQLTLVEIPKGSCAVYGSSFKAYTEDCANLNTYICMKRAVRSGGGSGGGSFQPVLCNKEVPVSSREGYCGPCPNNWICHRNNCYQFFNEEKTWNQSQASCLSQNSSLLKIYSKEEQDFLKLVKSYHWMGLVQIPANGSWQWEDGSSLSYNQLTLVEIPKGSCAVYGSSFKAYTEDCANLNTYICMKRAV
notes: also called C-terminal, 10 aa linker
B6: MM1, mNKG2D (aa94-232)-RS(G3S)2-mNKG2D (aa94-232)-mFc2 (Fc fusion)
chain: FQPVLCNKEVPVSSREGYCGPCPNNWICHRNNCYQFFNEEKTWNQSQASCLSQNSSLLKIYSKEEQDFLKLVKSYHWMGLVQIPANGSWQWEDGSSLSYNQLTLVEIPKGSCAVYGSSFKAYTEDCANLNTYICMKRAVRSGGGSGGGSFQPVLCNKEVPVSSREGYCGPCPNNWICHRNNCYQFFNEEKTWNQSQASCLSQNSSLLKIYSKEEQDFLKLVKSYHWMGLVQIPANGSWQWEDGSSLSYNQLTLVEIPKGSCAVYGSSFKAYTEDCANLNTYICMKRAVISAMVRSPRGPTIKPCPPCKCPAPNLLGGPSVFIFPPKIKDVLMISLSPIVTCVVVDVSEDDPDVQISWFVNNVEVHTAQTQTHREDYNSTLRVVSALPIQHQDWMSGKEFKCKVNNKDLPAPIERTISKPKGSVRAPQVYVLPPPEEEMTKKQVTLTCMVTDFMPEDIYVEWTNNGKTELNYKNTEPVLDSDGSYFMYSKLRVEKKNWVERNSYSCSVVHEGLHNHHTTKSFSRTPGK
notes: also called mouse NKG2D-Fc surrogate construct, N-terminal, no linker
B7: MM4, mNKG2D (aa94-232)-RS(G3S)2-mNKG2D (aa94-232)-(G4S)6-mFc2 (Fc fusion)
chain: FQPVLCNKEVPVSSREGYCGPCPNNWICHRNNCYQFFNEEKTWNQSQASCLSQNSSLLKIYSKEEQDFLKLVKSYHWMGLVQIPANGSWQWEDGSSLSYNQLTLVEIPKGSCAVYGSSFKAYTEDCANLNTYICMKRAVRSGGGSGGGSFQPVLCNKEVPVSSREGYCGPCPNNWICHRNNCYQFFNEEKTWNQSQASCLSQNSSLLKIYSKEEQDFLKLVKSYHWMGLVQIPANGSWQWEDGSSLSYNQLTLVEIPKGSCAVYGSSFKAYTEDCANLNTYICMKRAVGGGGSGGGGSGGGGSGGGGSGGGGSGGGGSISAMVRSPRGPTIKPCPPCKCPAPNLLGGPSVFIFPPKIKDVLMISLSPIVTCVVVDVSEDDPDVQISWFVNNVEVHTAQTQTHREDYNSTLRVVSALPIQHQDWMSGKEFKCKVNNKDLPAPIERTISKPKGSVRAPQVYVLPPPEEEMTKKQVTLTCMVTDFMPEDIYVEWTNNGKTELNYKNTEPVLDSDGSYFMYSKLRVEKKNWVERNSYSCSVVHEGLHNHHTTKSFSRTPGK
notes: also called N-terminal, 30 aa linker
B8: MM2, mNKG2D (aa94-232)-RS(G3S)2-mNKG2D (aa94-232)-(G4S)2-mFc2 (Fc fusion)
chain: FQPVLCNKEVPVSSREGYCGPCPNNWICHRNNCYQFFNEEKTWNQSQASCLSQNSSLLKIYSKEEQDFLKLVKSYHWMGLVQIPANGSWQWEDGSSLSYNQLTLVEIPKGSCAVYGSSFKAYTEDCANLNTYICMKRAVRSGGGSGGGSFQPVLCNKEVPVSSREGYCGPCPNNWICHRNNCYQFFNEEKTWNQSQASCLSQNSSLLKIYSKEEQDFLKLVKSYHWMGLVQIPANGSWQWEDGSSLSYNQLTLVEIPKGSCAVYGSSFKAYTEDCANLNTYICMKRAVGGGGSGGGGSISAMVRSPRGPTIKPCPPCKCPAPNLLGGPSVFIFPPKIKDVLMISLSPIVTCVVVDVSEDDPDVQISWFVNNVEVHTAQTQTHREDYNSTLRVVSALPIQHQDWMSGKEFKCKVNNKDLPAPIERTISKPKGSVRAPQVYVLPPPEEEMTKKQVTLTCMVTDFMPEDIYVEWTNNGKTELNYKNTEPVLDSDGSYFMYSKLRVEKKNWVERNSYSCSVVHEGLHNHHTTKSFSRTPGK
notes: also called N-terminal, 10 aa linker

Key:
[1] = biological target: T1, mouse Rae-1α over-expressed on CT26.WT …; assay: flow cytometry titration on CT26.WT cells over-expressing mouse Rae-1α; R-PE anti-mouse Fc detection, mean R-PE fluorescence
Procedure: (§1) A […] cell sorting (FACS) based binding assay against mouse NKG2D-ligands expressed at the cell surface was performed to characterize the binding of the dimeric mouse NKG2D-Fc variants fused either to N-terminus or to C-terminus of the Fc region with no peptide linker or with different peptide linker lengths (10, 20 or 30 amino acids).
(§2) Half maximal effective concentration (EC50) in nM was determined on two different engineered stable CT26.WT cell lines, over-expressing at their surface the recombinant ligands mouse Rae-1α and mouse Rae-1E. The cells were incubated with the different concentrations of protein in DPBS supplemented with 5% FCS and 0.04% NaN₃ (FACS buffer). […] For each sample, the mean of the resulting fluorescence of alive gated cells was extracted using the Cell Quest Pro software (BD Biosciences).

[2] = biological target: T2, mouse Rae-1ε over-expressed on CT26.WT …; assay: flow cytometry titration on CT26.WT cells over-expressing mouse Rae-1ε; R-PE anti-mouse Fc detection, mean R-PE fluorescence
Procedure: as §1, §2

| Binder | EC50 [1] | EC50 [2] |
| --- | --- | --- |
| B1 | 15.6 nM | 0.624 nM |
| B2 | 13 nM | 1.5 nM |
| B3 | 0.495 nM | 1.99 nM |
| B4 | 0.738 nM | 3.02 nM |
| B5 | 1.15 nM | 0.668 nM |
| B6 | 1.05 nM | 2.56 nM |
| B7 | 0.894 nM | 1.65 nM |
| B8 | 1.27 nM | 1.87 nM |
